According to PMC2836954 (Molecular Biology of the Cell, 2010):

B1: EGFP-PKD2-WT (protein kinase D2, wild type) (enzyme, UniProt Q9BZL6 1-878, looked up)
chain: MATAPSYPAGLPGSPGPGSPPPPGGLELQSPPPLLPQIPAPGSGVSFHIQIGLTREFVLLPAASELAHVKQLACSIVDQKFPECGFYGLYDKILLFKHDPTSANLLQLVRSSGDIQEGDLVEVVLSASATFEDFQIRPHALTVHSYRAPAFCDHCGEMLFGLVRQGLKCDGCGLNYHKRCAFSIPNNCSGARKRRLSSTSLASGHSVRLGTSESLPCTAEELSRSTTELLPRRPPSSSSSSSASSYTGRPIELDKMLLSKVKVPHTFLIHSYTRPTVCQACKKLLKGLFRQGLQCKDCKFNCHKRCATRVPNDCLGEALINGDVPMEEATDFSEADKSALMDESEDSGVIPGSHSENALHASEEEEGEGGKAQSSLGYIPLMRVVQSVRHTTRKSSTTLREGWVVHYSNKDTLRKRHYWRLDCKCITLFQNNTTNRYYKEIPLSEILTVESAQNFSLVPPGTNPHCFEIVTANATYFVGEMPGGTPGGPSGQGAEAARGWETAIRQALMPVILQDAPSAPGHAPHRQASLSISVSNSQIQENVDIATVYQIFPDEVLGSGQFGVVYGGKHRKTGRDVAVKVIDKLRFPTKQESQLRNEVAILQSLRHPGIVNLECMFETPEKVFVVMEKLHGDMLEMILSSEKGRLPERLTKFLITQILVALRHLHFKNIVHCDLKPENVLLASADPFPQVKLCDFGFARIIGEKSFRRSVVGTPAYLAPEVLLNQGYNRSLDMWSVGVIMYVSLSGTFPFNEDEDINDQIQNAAFMYPASPWSHISAGAIDLINNLLQVKMRKRYSVDKSLSHPWLQEYQTWLDLRELEGKMGERYITHESDDARWEQFAAEHPLPGSGLPTDRDLGGACPPQDHDMQGLAERISVL

Key:
Test in all cases: pull-down
[1] = target: the active ARF1 mutants ARF-Q71L and ARF1-Δ17-Q71L
GST-ARF1-Q71L = GST-ARF1-Q71L (human, UniProt P84077 1-181, Q71L)
Sequence of GST-ARF1-Q71L (P84077 whole entry Q71L): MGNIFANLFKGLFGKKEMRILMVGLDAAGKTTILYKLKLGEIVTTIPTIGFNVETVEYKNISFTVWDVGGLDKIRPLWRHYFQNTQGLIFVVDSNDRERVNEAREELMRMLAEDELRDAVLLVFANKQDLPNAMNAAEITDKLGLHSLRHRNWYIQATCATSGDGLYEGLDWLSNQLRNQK

GST-ARF1 Δ17-Q71L = GST-ARF1 Δ17-Q71L (human, UniProt P84077 18-181, Q71L)
Sequence of GST-ARF1 Δ17-Q71L (P84077 18-181 Q71L): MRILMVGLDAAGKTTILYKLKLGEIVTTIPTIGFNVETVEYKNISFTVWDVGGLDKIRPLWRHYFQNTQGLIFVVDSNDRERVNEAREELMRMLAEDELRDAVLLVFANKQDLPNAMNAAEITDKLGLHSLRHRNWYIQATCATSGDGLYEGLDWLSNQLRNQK

Molecule	fold binding compared with wild-type or dominant-negative ARF1 [1]	fold binding compared with ARF1-WT or ARF1-T31N (GST-ARF1-Q71L)	fold binding compared with ARF1-WT (GST-ARF1 Δ17-Q71L)
His-tagged C1b domain of PKD2 (domain or fragment)	1.5 to 1.75 fold		
B1		2 fold	2 fold
